Data taken from US20250367270A1.

Target: SARS-CoV-2 recombinant spike HexaPro protein (SARS-CoV-2) (UniProt P0DTC2)
Experiment: SPR
Conditions: Fc fusion

FcACE2 dimer construct (Fc-linker-ACE2) gave a Kd of 0.43 nM.
